Test results as given in paper PMC6303327 (2018).

Target: Rfa3 DNA-binding domain-E (DBD-E), OB domain, residues 1-99 (S. cerevisiae, UniProt P26755 1-99, fluorescent label NT-495 (Monolith NT protein-labeling Kit Blue-Cys) on free cysteine residues)
Assay: MST

Sequence of Rfa3 DNA-binding domain-E (DBD-E), OB domain, residues 1-99 (P26755 1-99): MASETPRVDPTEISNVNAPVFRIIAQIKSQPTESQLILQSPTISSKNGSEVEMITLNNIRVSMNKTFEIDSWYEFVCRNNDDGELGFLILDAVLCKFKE

EC50: 36 µM
B1: Rfa1 DBD-A (residues 178-294) phosphomimetic S178D (domain or fragment)
chain: DQKTRPIFAIEQLSPYQNVWTIKARVSYKGEIKTWHNQRGDGKLFNVNFLDTSGEIRATAFNDFATKFNEILQEGKVYYVSKAKLQPAKPQFTNLTHPYELNLDRDTVIEECFDESN
